Common to all, as to assay: flow cytometry, peptide-pulsed T2 cells;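 note: ratio of peak mean fluorescence intensity across a 12-point threefold antibody dilution series to the MFI with secondary antibody only, live-gated cells by flow cytometry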
Test [1] concerns the target T1, HLA-A*02:01 presenting PLEKHH2 790-798 peptide (…) (human).
T1 construct: On peptide-pulsed T2 cells; also called T2 Pulsed PLEKHH2 790-798

Test [2] addresses T2, HLA-A*02:01 presenting PSME2 145-153 peptide (…) (human).
T2 construct: On peptide-pulsed T2 cells; also called T2 Pulsed PSME2 145-153

The target in test [3] is T3, HLA-A*02:01 presenting MAGE-A4 286-294 peptide (…) (human).
T3 construct: On peptide-pulsed T2 cells

The target of test [4] is T4, HLA-A*02:01 presenting PCDHGC3 337-345 peptide (…) (human).
T4 construct: On peptide-pulsed T2 cells; also called T2 Pulsed PCDHGC3 337-345

In test [5] the target is T5, HLA-A*02:01 presenting TEP1 2156-2164 peptide (…) (human).
T5 construct: On peptide-pulsed T2 cells; also called T2 Pulsed TEP1 2156-2164

Test [6] addresses T6, HLA-A*02:01 presenting SHTN1 198-206 peptide (…) (human).
T6 construct: On peptide-pulsed T2 cells; also called T2 Pulsed SHTN1 198-206

For test [7], the target named is T7, HLA-A*02:01 presenting MRPL37 334-342 peptide (…) (human).
T7 construct: On peptide-pulsed T2 cells; also called T2 Pulsed MRPL37 334-342

The target of test [8] is T8, HLA-A*02:01 presenting AOX1 795-803 peptide (…) (human).
T8 construct: On peptide-pulsed T2 cells; also called T2 Pulsed AOX1 795-803

The target in test [9] is T9, HLA-A*02:01 presenting CARD8 170-178 peptide (…) (human).
T9 construct: On peptide-pulsed T2 cells; also called T2 Pulsed CARD8 170-178

In test [10] the target is T10, HLA-A*02:01 presenting RABGAP1L 408-416 peptide (…) (human).
T10 construct: On peptide-pulsed T2 cells; also called T2 Pulsed RABGAP1L 408-416

Test [11] deals with T11, HLA-A*02:01 presenting CNOT1 1965-1973 peptide (…) (human).
T11 construct: On peptide-pulsed T2 cells; also called T2 Pulsed CNOT1 1965-1973

Test [12] deals with T12, HLA-A*02:01 presenting NBAS 2063-2071 peptide (…) (human).
T12 construct: On peptide-pulsed T2 cells; also called T2 Pulsed NBAS 2063-2071

Test [13] deals with T13, HLA-A*02:01 presenting HEATR5A 1925-1933 peptide (…) (human).
T13 construct: On peptide-pulsed T2 cells

B1: bsAb6043 (bispecific antibody, V domains shown)
VH 1: QVQLVESGGGLVKPGGSLRLSCAASGFTFSEYYLTWIRQAPGKGLDWIAYISSSGYNIYYADSVKDRFTISRDNGKNSLFLQMNNLRAEDTAVYFCAREGVTDGMDVWGQGTTVTVSS
VH 2: EVQLVESGGGLVQPGRSLRLSCAASGFTFDDYSMHWVRQAPGKGLEWVSGISWNSGSKGYADSVKGRFTISRDNAKNSLYLQMNSLRAEDTALYYCAKYGSGYGKFYHYGLDVWGQGTTVTVSS
VL: DIQMTQSPSSLSASVGDRVTITCRASQSIDTFLNWYQQKPGKVPKLLIYAASNLESGVPSRFSGSGSGTVFTLTISRLQPEDFATYYCQQSYSIPPITFGQGTRVEIK
notes: Only variable regions are tied to the bispecific; also called MAGE-A4×CD3 (7221G) bispecific antibody
With B1, the S/N ratio came out at 1 in test [1]; 1 in test [2]; 244 in [3]; 1 in [4]; 1 in [5]; 5 in test [6]. Besides, the S/N ratio in test [7] worked out at 1; in [8], 110; in test [9] it was 1; in test [10], 1; in [11] it was 1; in test [12], 1. The S/N ratio in test [13] turned out to be 1.

Source of the values: patent US20240226163A1 (Regeneron, published 2024).
